For this data set, the target named is T1, heat shock factor (HSF) (UniProt P22813 P22813:1-691).
T1 sequence: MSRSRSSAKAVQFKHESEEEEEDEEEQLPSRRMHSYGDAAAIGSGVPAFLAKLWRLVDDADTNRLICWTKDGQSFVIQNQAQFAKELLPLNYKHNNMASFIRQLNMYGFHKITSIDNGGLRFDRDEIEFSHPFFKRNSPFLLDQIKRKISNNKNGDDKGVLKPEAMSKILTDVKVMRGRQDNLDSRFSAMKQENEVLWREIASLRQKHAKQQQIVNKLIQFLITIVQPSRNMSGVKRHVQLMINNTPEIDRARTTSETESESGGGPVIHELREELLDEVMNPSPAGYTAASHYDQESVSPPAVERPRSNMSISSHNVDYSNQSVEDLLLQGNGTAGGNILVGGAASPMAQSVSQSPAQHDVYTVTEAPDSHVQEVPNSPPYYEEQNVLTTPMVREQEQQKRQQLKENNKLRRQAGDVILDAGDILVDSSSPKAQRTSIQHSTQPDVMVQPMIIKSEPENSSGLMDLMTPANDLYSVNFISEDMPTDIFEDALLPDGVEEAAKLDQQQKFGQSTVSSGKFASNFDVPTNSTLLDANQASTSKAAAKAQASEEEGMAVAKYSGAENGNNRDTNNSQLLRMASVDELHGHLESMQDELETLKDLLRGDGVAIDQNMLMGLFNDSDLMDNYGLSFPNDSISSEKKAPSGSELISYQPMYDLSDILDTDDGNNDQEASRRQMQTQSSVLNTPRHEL
The data set can be described thus: EMSA; estimated from EMSA data; construct not given. As to conditions: tags: fusion construct from E. coli (GST, His or MBP; exact one not specified for this assay); chain copies: 3.

B1: RA1-HSF (14-1) (ssRNA)
RNA: GGGAGAAUUCAACUGCCAUCUAGGCAUCGCGAUACAAAAUUAAGUUGAACGCGAGUUCUCCAUCUAGUACUACAAGCUUCUGGACUCGAU
As usually defined, the Kd is the equilibrium constant for the complex coming apart. In the case of B1, the Kd was 20 nM.

The values are drawn from patent publication US20040053310, “Exhaustive selection of RNA aptamers against complex targets” (published 2004).
